Measured values published in US20090221680.
pKd: −log10 of the molar value.

Target: thrombin (alpha-thrombin) (Homo sapiens) (UniProt P00734+P00734)
Assay: filter

“ACTGCCTAGGTTGGGTAGGGTGGTGGCAGT [ARC2673]” was tested, and the pKd (deoxyinosine at 4 [deoxyinosine at 4 (parent base G)]) was 9.68.

For “ACTGCCTAGGTTGGGTAGGGTGGTGGCAGT [ARC2674]”, the pKd (deoxyinosine at 9 [9]) was 9.34.

Sequence “ACTGCCTAGGTTGGGTAGGGTGGTGGCAGT [ARC2675]” has a pKd (deoxyinosine at 10 [10]) of 8.69.

“ACTGCCTAGGTTGGGTAGGGTGGTGGCAGT [ARC2676]” showed a pKd (deoxyinosine at 13 [13]) of 9.16.

“ACTGCCTAGGTTGGGTAGGGTGGTGGCAGT [ARC2677]” showed a pKd (deoxyinosine at 14 [14]) of 9.70.

With “ACTGCCTAGGTTGGGTAGGGTGGTGGCAGT [ARC2678]” the pKd (deoxyinosine at 15 [15]) was 8.84.

With “ACTGCCTAGGTTGGGTAGGGTGGTGGCAGT [ARC2679]” the pKd (deoxyinosine at 18 [18]) was 9.45.

“ACTGCCTAGGTTGGGTAGGGTGGTGGCAGT [ARC2680]” showed a pKd (deoxyinosine at 19 [19]) of 9.62.

“ACTGCCTAGGTTGGGTAGGGTGGTGGCAGT [ARC2681]” showed a pKd (deoxyinosine at 20 [20]) of 9.48.

“ACTGCCTAGGTTGGGTAGGGTGGTGGCAGT [ARC2682]” was tested, and the pKd (deoxyinosine at 22 [22]) was 8.89.

With “ACTGCCTAGGTTGGGTAGGGTGGTGGCAGT [ARC2683]” the pKd (deoxyinosine at 23 [23]) was 9.82.

“ACTGCCTAGGTTGGGTAGGGTGGTGGCAGT [ARC2684]” was tested, and the pKd (deoxyinosine at 25 [25]) was 9.73.

“ACTGCCTAGGTTGGGTAGGGTGGTGGCAGT [ARC2685]” was tested, and the pKd (deoxyinosine at 26 [26]) was 9.65.

With “ACTGCCTAGGTTGGGTAGGGTGGTGGCAGT [ARC2686]” the pKd (deoxyinosine at 29 [29]) was 9.72.

For “ACTGCCTAGGTTGGGTAGGGTGGTGGCAGT [ARC2687]”, the pKd (2'-OMe inosine at 4, rest DNA [4]) was 9.66.

“ACTGCCTAGGTTGGGTAGGGTGGTGGCAGT [ARC2691]” showed a pKd (2'-OMe inosine at 14, rest DNA [14]) of 8.64.

“ACTGCCTAGGTTGGGTAGGGTGGTGGCAGT [ARC2692]” showed a pKd (2'-OMe inosine at 15, rest DNA [15]) of 8.74.

“ACTGCCTAGGTTGGGTAGGGTGGTGGCAGT [ARC2695]” was tested, and the pKd (2'-OMe inosine at 20, rest DNA [20]) was 8.68.

In the case of “ACTGCCTAGGTTGGGTAGGGTGGTGGCAGT [ARC2697]”, the pKd (2'-OMe inosine at 23, rest DNA [23]) was 8.81.

In the case of “ACTGCCTAGGTTGGGTAGGGTGGTGGCAGT [ARC2698]”, the pKd (2'-OMe inosine at 25, rest DNA [25 = 2'-OMe inosine (written as parent base G), rest DNA]) was 9.78.

“ACTGCCTAGGTTGGGTAGGGTGGTGGCAGT [ARC2699]” was tested, and the pKd (2'-OMe inosine at 26, rest DNA [26 = 2'-OMe inosine (written as parent base G), rest DNA]) was 9.89.

For “ACTGCCTAGGTTGGGTAGGGTGGTGGCAGT [ARC2700]”, the pKd (2'-OMe inosine at 29, rest DNA [29 = 2'-OMe inosine (written as parent base G), rest DNA]) was 10.34.
